Patent publication US20240156928A1

Biological target: CD19 (UniProt P15391)
Assay: cell-based or functional assay

- intracellular IFNγ staining, percent of T cells: 30%
Substance: CD19R:CD28:z(CO) CAR with L235E and N297Q in the IgG4 spacer (CD19R(EQ))
